B1: 37B7: anti-human TLR3 Ab used in Example 11; VH/VL SEQ ID NO 71/72 (antibody, listed as Rattus norvegicus, V domains shown)
VH: QVQLQQSGTELVKPGSSVKISCKASGYTFTSNYMHWIRQLPGNGLEWIGWIFPGDGDTNYNQKFNGKATLTADKSSSTAYMQLSSLTSEDYAVYFCARSDGDWYFDFWGPGTMVTVSS
VL: DIQMTQSPGSLSASLGETVTIQCQASEDIYSGLAWYQQKPRKSPQLLISAASRLQDGVPSRFSGSGSGTQYSLKISSMQTEDEGVYFCQQGVKYPNTFGPGTKLELK
B2: 34A3: anti-human TLR3 mAb; VH/VL SEQ ID NO 77/78 (antibody, listed as Mus musculus, V domains shown)
VH: MEWRWIFLFLLSGTTGVHSEIQLQQSGPELVKPGASVKVSCKASGYVFTTYSIYWVKQSHGKSLEWIGYIDPYNGDTSYNQKFKGKATLTVDKSSSTAYMHLNSLTSEDSTVYYCAREGNYYGYFDYWGQGTTLTVS
VL: MDFQVQIFSFLLMSASVIMSRGQIVLTQSPALMSASPGEKVTMTCSASSSVSYMFWYQQKPRSSPKPWIYLTSNLASGVPARFSGSGSGTSYSLTISSMEAEDAATYYCQQWTGNPPTFGGGTKLEIK
B3: 31C3: anti-human TLR3 mAb, cell deposited as 31C3.1, CNCM I-4186; VH/VL SEQ ID NO 75/76 (antibody, listed as Mus musculus, V domains shown)
VH: MGWSWIFLFLLSGTAGVLSEVQLQQSGPELVKPGASVKISCKPSGYSFTAYYMHWVKQSHVKSLEWIGRINPYNGATSYNRNFKDKASLTVDKSSSTAYMELHSLTSEDSAVYYCARSGGNTYFDYWGQGTTLTVS
VL: MSVPTQVLGLLLLWLTGARCDIQMTQSPASLSASVGETVTITCRASENIYSSLAWYQQKQGKSPQLLVYNAKTLAEGVPSRFSGSGSGTQFSSLKINSLQPEDFGTYYCQHHYGTPPTFGGGTKLEIK

Legend:
BEAS-2B cell line = assay: IL-6 and IP-10 production by BEAS-2B cells in response to polyAU (ELISA); format: cell-based, human; settings: 300 μg/ml IPH3102, 24 h
Protocol: IL-6 and IP-10 production was assessed in PBMC and virus-transformed lung epithelial BEAS-2B cell line in response to high molecular weight polyAU (IPH3102), a specific agonist of TLR3. Experiments with BEAS-2B were performed in Bronchial Epithelial Growth Medium (Lonza, #CC-3170). 2×10^4 BEAS-2B per well were plated in flat-bottom 96W plates in 100 μl culture medium and incubated over night at 37° C. A part of the cells was treated for 24-supplemental hours with 1000 UI/ml Intron A (Schering Plough, IFN-alpha 2b). Medium was discarded and 37B7 anti-human TLR3 Ab (0.01 and 0.1 μg/ml in the condition without Intron A and 0.01 and 0.3 μg/ml after treatment with Intron A) was added to the culture. Cells were incubated 30 min at 37° C. prior addition of Dexamethasone (1, 0.1, 0.01, 0.001 μg/ml in the condition […] and 10, 1, 0.1, 0.01 μg/ml after treatment with Intron A) or Budesonide (1, 0.1, 0.01, 0.001 μg/ml). Cells were incubated 30-additional min at 37° C. before addition of 300 μg/ml IPH3102. Cells were finally incubated for 24-additional hours and supernatants were harvested to quantify IL-6 and IP-10 production by ELISA.

PBMC = assay: IP-10 production by donor PBMC in response to dsRNA and drug combinations (ELISA); format: cell-based, human; settings: for IP-10 production in response to polyIC, antibody combined with methotrexate, dexamethasone or Humira / IP-10 production in response to polyAU, antibody combined with methotrexate, dexamethasone or Humira: antibody 50 μg/ml plus dose range of drug; for IP-10 production in response to polyIC, antibody combined with methotrexate, dexamethasone or Humira / IP-10 production in response to polyIC: 30 μg/ml poly(I:C); for IP-10 production in response to polyIC, antibody combined with methotrexate, dexamethasone or Humira: donors 1 and 2; for IP-10 production in response to polyAU, antibody combined with methotrexate, dexamethasone or Humira: 300 μg/ml IPH3102, donor 2; for IP-10 production in response to polyIC / IP-10 production in response to polyAU: antibody 50 μg/ml; for IP-10 production in response to polyIC: 24 h, human donors 1 and 2; for IP-10 production in response to polyAU: 300 μg/ml IPH3102, 24 h, human donor 2
Protocol: IP-10 production was assessed in human donors in response to polyAU (IPH3102), believed to be a specific agonist of TLR3, or plC, believed to be an agonist of TLR3 as well as other dsRNA receptors such as RIG-I and MDA-5. Fresh PBMC were isolated from whole blood of two independent donors. 1.5×10^6 (donor #1) and 3×10^6 (donor #2) PBMC per ml were incubated in flat-bottom 96W plates in the presence of 50 μg/ml 31C3 or 34A3 anti-human TLR3 mAbs and a dose range of methotrexate (300, 30 and 3 μg/ml), dexamethasone (200, 20, 2 μg/ml) or Humira® (100, 10, 1 μg/ml). Cells were incubated 1 hr at 37° C. prior addition of 300 μg/ml IPH3102 or 30 μg/ml poly(I:C). Cells were incubated for 24 additional hours at 37° C. Supernatant were then harvested to quantify IP10 production by ELISA. Cells were then recovered, stained with 7-AAD and analyzed by flow cytometry (FACS) to evaluate potential toxic effects of any drugs.

Row | Molecule | IL-6 production by BEAS-2B, anti-TLR3 Ab combined with dexamethasone or budesonide (BEAS-2B cell line; highest anti-TLR3 Ab dose) | block of BEAS-2B IL-6 production (BEAS-2B cell line; highest concentration of anti-TLR3 Ab) [%] | IP-10 production in response to polyIC, antibody combined with methotrexate, dexamethasone or Humira (PBMC) | IP-10 production in response to polyAU, antibody combined with methotrexate, dexamethasone or Humira (PBMC) | IP-10 production in response to polyIC (PBMC) | IP-10 production in response to polyAU (PBMC)
1 | B1 | strong additive inhibition | ~50 | – | – | – | –
2 | B2 | – | – | reduce IP-10 further | reduce IP-10 further | substantially reduce IP-10 production | substantially reduce IP-10 production
3 | B3 | – | – | reduce IP-10 further | reduce IP-10 further | substantially reduce IP-10 production | substantially reduce IP-10 production

Source: patent publication US20160136272A1, “METHODS FOR RESTORING CORTICOSTEROID SENSITIVITY” (priority 2013, published 2016)
